Experimental data taken from patent US20230250154A1 (CYTONICS, published 2023).

T1: MMP1 (human, UniProt P03956 100-469, limits assumed)
T1 sequence (looked up): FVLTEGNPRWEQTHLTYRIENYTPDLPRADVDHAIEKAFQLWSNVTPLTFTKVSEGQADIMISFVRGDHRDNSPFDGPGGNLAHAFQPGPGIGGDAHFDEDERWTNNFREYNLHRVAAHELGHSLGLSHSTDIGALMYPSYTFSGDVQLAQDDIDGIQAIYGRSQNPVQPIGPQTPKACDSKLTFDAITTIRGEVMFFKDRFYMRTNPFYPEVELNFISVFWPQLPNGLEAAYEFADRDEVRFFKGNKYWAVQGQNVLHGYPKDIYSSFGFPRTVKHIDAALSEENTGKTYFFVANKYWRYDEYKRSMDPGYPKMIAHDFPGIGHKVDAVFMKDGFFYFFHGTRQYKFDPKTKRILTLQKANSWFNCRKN

T2: MMP7 (UniProt P09237 95-267, limits assumed)
T2 sequence (looked up): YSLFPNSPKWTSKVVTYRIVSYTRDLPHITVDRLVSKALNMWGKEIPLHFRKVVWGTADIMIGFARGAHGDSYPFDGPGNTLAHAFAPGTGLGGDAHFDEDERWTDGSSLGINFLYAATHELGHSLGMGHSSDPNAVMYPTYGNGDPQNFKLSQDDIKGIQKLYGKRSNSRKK

T3: ADAMTS4 (human, UniProt O75173 213-685, limits assumed)
T3 sequence (looked up): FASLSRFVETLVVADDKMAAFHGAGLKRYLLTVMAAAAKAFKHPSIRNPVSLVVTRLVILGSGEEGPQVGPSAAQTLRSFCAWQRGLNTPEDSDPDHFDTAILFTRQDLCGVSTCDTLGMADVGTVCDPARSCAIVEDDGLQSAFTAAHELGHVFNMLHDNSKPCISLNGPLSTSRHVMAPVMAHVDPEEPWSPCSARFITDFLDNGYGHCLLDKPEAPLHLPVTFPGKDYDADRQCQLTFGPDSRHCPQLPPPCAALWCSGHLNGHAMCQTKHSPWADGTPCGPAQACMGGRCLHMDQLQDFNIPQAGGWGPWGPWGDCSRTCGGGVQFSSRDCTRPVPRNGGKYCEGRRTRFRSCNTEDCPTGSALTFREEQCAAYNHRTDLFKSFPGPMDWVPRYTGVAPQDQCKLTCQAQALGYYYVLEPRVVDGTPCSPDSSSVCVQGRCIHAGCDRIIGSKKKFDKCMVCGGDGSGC

T4: ADAMTS5 (human, UniProt Q9UNA0 262-622, limits assumed)
T4 sequence (looked up): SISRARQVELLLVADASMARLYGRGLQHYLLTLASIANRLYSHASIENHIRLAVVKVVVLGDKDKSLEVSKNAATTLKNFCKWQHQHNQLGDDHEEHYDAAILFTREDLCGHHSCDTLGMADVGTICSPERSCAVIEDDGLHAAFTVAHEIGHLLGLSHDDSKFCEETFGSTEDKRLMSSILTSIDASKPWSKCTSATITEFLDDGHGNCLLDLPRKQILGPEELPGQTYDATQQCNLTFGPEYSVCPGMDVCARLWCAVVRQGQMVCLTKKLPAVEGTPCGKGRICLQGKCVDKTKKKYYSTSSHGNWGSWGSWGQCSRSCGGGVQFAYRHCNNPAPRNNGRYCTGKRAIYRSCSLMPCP

T5: Cathepsin G (UniProt P08311 21-244)
T5 sequence (looked up): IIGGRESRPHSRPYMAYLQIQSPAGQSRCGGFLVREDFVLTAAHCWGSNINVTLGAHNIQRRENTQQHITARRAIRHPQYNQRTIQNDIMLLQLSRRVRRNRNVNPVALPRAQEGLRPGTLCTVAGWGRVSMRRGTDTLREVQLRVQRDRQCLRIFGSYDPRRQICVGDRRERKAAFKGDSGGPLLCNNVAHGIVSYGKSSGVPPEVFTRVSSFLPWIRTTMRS

T6: MMP2 (human, UniProt P08253 110-660, limits assumed)
T6 sequence (looked up): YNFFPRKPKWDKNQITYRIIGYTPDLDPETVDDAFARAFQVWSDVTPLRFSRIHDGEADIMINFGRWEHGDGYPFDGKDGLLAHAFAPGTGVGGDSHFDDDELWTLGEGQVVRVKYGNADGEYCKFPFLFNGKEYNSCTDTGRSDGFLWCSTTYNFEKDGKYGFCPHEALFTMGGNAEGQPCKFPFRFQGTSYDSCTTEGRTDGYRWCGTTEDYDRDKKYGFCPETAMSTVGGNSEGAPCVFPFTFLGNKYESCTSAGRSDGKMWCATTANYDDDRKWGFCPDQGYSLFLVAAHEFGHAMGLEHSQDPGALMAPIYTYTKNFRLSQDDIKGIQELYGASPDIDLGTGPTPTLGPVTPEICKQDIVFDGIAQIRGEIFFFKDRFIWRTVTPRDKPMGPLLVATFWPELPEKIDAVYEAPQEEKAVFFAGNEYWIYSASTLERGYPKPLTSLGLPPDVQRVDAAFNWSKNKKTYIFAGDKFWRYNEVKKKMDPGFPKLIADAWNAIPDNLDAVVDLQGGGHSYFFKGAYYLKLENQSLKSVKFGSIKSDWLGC


Experiments:
Assay in all cases: cell-based or functional assay
[1] = biological target: T1, MMP1
[2] = biological target: T2, MMP7
[3] = biological target: MMP9 (human, UniProt P14780 107-707, limits assumed)
Chain of MMP9 (P14780 107-707 limits assumed): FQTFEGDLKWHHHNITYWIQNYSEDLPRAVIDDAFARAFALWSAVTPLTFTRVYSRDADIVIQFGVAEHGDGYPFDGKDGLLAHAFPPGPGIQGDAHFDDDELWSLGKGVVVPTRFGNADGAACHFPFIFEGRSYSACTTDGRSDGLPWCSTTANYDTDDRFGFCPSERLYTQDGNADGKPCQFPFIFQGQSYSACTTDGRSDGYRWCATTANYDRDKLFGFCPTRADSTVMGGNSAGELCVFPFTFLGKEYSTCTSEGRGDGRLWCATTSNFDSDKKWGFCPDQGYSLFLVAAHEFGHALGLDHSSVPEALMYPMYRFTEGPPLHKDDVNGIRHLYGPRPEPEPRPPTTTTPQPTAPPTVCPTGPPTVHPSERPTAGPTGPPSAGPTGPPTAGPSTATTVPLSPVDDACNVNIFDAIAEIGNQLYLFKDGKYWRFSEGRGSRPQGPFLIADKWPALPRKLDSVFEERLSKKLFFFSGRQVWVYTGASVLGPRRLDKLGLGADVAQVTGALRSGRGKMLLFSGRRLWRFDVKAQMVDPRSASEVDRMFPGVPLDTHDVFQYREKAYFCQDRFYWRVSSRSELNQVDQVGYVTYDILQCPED

[4] = biological target: MMP3 (human, UniProt P08254 100-477, limits assumed)
Chain of MMP3 (P08254 100-477 limits assumed): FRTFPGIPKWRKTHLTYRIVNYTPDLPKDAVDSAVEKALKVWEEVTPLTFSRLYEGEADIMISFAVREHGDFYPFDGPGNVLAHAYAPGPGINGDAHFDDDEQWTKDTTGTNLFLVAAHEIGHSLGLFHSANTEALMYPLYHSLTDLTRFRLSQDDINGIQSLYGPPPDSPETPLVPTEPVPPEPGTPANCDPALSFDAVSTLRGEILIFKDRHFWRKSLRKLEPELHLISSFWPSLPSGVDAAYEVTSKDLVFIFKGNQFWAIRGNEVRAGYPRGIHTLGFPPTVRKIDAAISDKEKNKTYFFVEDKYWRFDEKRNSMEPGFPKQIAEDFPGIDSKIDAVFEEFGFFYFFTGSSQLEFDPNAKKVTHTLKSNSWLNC

[5] = biological target: T3, ADAMTS4
[6] = biological target: MMP13 (human, UniProt P45452 104-471, limits assumed)
[7] = biological target: Elastase
[8] = biological target: T4, ADAMTS5
[9] = biological target: MMP8 (human, UniProt P22894 101-467, limits assumed)
Chain of MMP8 (P22894 101-467 limits assumed): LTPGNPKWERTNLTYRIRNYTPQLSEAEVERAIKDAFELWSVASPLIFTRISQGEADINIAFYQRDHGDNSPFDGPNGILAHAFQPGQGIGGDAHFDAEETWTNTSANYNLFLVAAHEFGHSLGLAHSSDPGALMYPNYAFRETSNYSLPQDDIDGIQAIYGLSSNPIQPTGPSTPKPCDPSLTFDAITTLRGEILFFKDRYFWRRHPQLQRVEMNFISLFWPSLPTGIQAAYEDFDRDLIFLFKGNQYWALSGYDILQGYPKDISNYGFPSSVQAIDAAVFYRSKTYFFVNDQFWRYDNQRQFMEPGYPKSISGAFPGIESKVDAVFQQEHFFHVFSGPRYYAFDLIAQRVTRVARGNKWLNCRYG

[10] = biological target: T5, Cathepsin G
[11] = biological target: T6, MMP2

Row | Protease Inhibition (% of WT) [1] | Protease Inhibition (% of WT) [2] | Protease Inhibition (% of WT) [3] | Protease Inhibition (% of WT) [4] | Protease Inhibition (% of WT) [5] | Protease Inhibition (% of WT) [6] | Protease Inhibition (% of WT) [7] | Protease Inhibition (% of WT) [8] | Protease Inhibition (% of WT) [9] | Protease Inhibition (% of WT) [10] | Protease Inhibition (% of WT) [11] | Binder
1 | 117 % of WT | 147 % of WT | 39 % of WT | 127 % of WT | 222 % of WT | 145 % of WT | 131 % of WT | 79 % of WT | 81 % of WT | 157 % of WT | 58 % of WT | Variant A2M, bait region SEQ ID NO 7 (other) SVSGKPQYMVLVPSLLHTETTEKGCVLLSYLNETVTVSASLESVRGNRSLFTDLEAENDVLHCVAFAVPKSSSNEEVMFLTVQVKGPTQEFKKRTTVMVKNEDSLVFVQTDKSIYKPGQTVKFRVVSMDENFHPLNELIPLVYIQDPKGNRIAQWQSFQLEGGLKQFSFPLSSEPFQGSYKVVVQKKSGGRTEHPFTVEEFVLPKFEVQVTVPKIITILEEEMNVSVCGLYTYGKPVPGHVTVSICRKYSDASDCHGEDSQAFCEKFSGQLNSHGCFYQQVKTKVFQLKRKEYEMKLHTEAQIQEEGTVVELTGRQSSEITRTITKLSFVKVDSHFRQGIPFFGQVRLVDGKGVPIPNKVIFIRGNEANYYSNATTDEHGLVQFSINTTNVMGTSLTVRVNYKDRSPCYGYQWVSEEHEEAHHTAYLVFSPSKSFVHLEPMSHELPCGHTQTVQAHYILNGGTLLGLKKLSFYYLIMAKGGIVRTGTHGLLVKQEDMKGHFSISIPVKSDIAPVARLLIYAVLPTGDVIGDSAKYDVENCLANKVDLSFSPSQSLPASHAHLRVTAAPQSVCALRAVDQSVLLMKPDAELSASSVYNLLPEKDLTGFPGPLNDQDDEDCINRHNVYINGITYTPVSSTNEKDMYSFLEDMGLKAFTNSKIRKPKMCPQLEHGPEGEGEGEGIPENFFGVRYSEDLVVQISELEGRGSVEEPHTKLRKYFPETWIWDLVVVNSAGVAEVGVTVPDTITEWKAGAFCLSEDAGLGISSTASLRAFQPFFVELTMPYSVIRGEAFTLKATVLNYLPKCIRVSVQLEASPAFLAVPVEKEQAPHCICANGRQTVSWAVTPKSLGNVNFTVSAEALESQELCGTEVPSVPEHGRKDTVIKPLLVEPEGLEKETTFNSLLCPSGGEVSEELSLKLPPNVVEESARASVSVLGDILGSAMQNTQNLLQMPYGCGEQNMVLFAPNIYVLDYLNETQQLTPEIKSKAIGYLNTGYQRQLNYKHYDGSYSTFGERYGRNQGNTWLTAFVLKTFAQARAYIFIDEAHITQALIWLSQRQKDNGCFRSSGSLLNNAIKGGVEDEVTLSAYITIALLEIPLTVTHPVVRNALFCLESAWKTAQEGDHGSHVYTKALLAYAFALAGNQDKRKEVLKSLNEEAVKKDNSVHWERPQKPKAPVGHFYEPQAPSAEVEMTSYVLLAYLTAQPAPTSEDLTSATNIVKWITKQQNAQGGFSSTQDTVVALHALSKYGAATFTRTGKAAQVTIQSSGTFSSKFQVDNNNRLLLQQVSLPELPGEYSMKVTGEGCVYLQTSLKYNILPEKEEFPFALGVQTLPQTCDEPKAHTSFQISLSVSYTGSRSASNMAIVDVKMVSGFIPLKPTVKMLERSNHVSRTEVSSNHVLIYLDKVSNQTLSLFFTVLQDVPVRDLKPAIVKVYDYYETDEFAIAEYNAPCSKDLGNADYKDDDDKGASHHHHHH
2 | 48 % of WT | 64 % of WT | 9 % of WT | < 100 % of WT | 120 % of WT | 56 % of WT | 39 % of WT | 97 % of WT | 28 % of WT | 12 % of WT | 33 % of WT | Variant A2M, bait region SEQ ID NO 8 (other) SVSGKPQYMVLVPSLLHTETTEKGCVLLSYLNETVTVSASLESVRGNRSLFTDLEAENDVLHCVAFAVPKSSSNEEVMFLTVQVKGPTQEFKKRTTVMVKNEDSLVFVQTDKSIYKPGQTVKFRVVSMDENFHPLNELIPLVYIQDPKGNRIAQWQSFQLEGGLKQFSFPLSSEPFQGSYKVVVQKKSGGRTEHPFTVEEFVLPKFEVQVTVPKIITILEEEMNVSVCGLYTYGKPVPGHVTVSICRKYSDASDCHGEDSQAFCEKFSGQLNSHGCFYQQVKTKVFQLKRKEYEMKLHTEAQIQEEGTVVELTGRQSSEITRTITKLSFVKVDSHFRQGIPFFGQVRLVDGKGVPIPNKVIFIRGNEANYYSNATTDEHGLVQFSINTTNVMGTSLTVRVNYKDRSPCYGYQWVSEEHEEAHHTAYLVFSPSKSFVHLEPMSHELPCGHTQTVQAHYILNGGTLLGLKKLSFYYLIMAKGGIVRTGTHGLLVKQEDMKGHFSISIPVKSDIAPVARLLIYAVLPTGDVIGDSAKYDVENCLANKVDLSFSPSQSLPASHAHLRVTAAPQSVCALRAVDQSVLLMKPDAELSASSVYNLLPEKDLTGFPGPLNDQDDEDCINRHNVYINGITYTPVSSTNEKDMYSFLEDMGLKAFTNSKIRKPKMCPQLEHGPEGEGEGEGIPENFFGVLYSEDLVVQISELEGRGSVEEPHTKLRKYFPETWIWDLVVVNSAGVAEVGVTVPDTITEWKAGAFCLSEDAGLGISSTASLRAFQPFFVELTMPYSVIRGEAFTLKATVLNYLPKCIRVSVQLEASPAFLAVPVEKEQAPHCICANGRQTVSWAVTPKSLGNVNFTVSAEALESQELCGTEVPSVPEHGRKDTVIKPLLVEPEGLEKETTFNSLLCPSGGEVSEELSLKLPPNVVEESARASVSVLGDILGSAMQNTQNLLQMPYGCGEQNMVLFAPNIYVLDYLNETQQLTPEIKSKAIGYLNTGYQRQLNYKHYDGSYSTFGERYGRNQGNTWLTAFVLKTFAQARAYIFIDEAHITQALIWLSQRQKDNGCFRSSGSLLNNAIKGGVEDEVTLSAYITIALLEIPLTVTHPVVRNALFCLESAWKTAQEGDHGSHVYTKALLAYAFALAGNQDKRKEVLKSLNEEAVKKDNSVHWERPQKPKAPVGHFYEPQAPSAEVEMTSYVLLAYLTAQPAPTSEDLTSATNIVKWITKQQNAQGGFSSTQDTVVALHALSKYGAATFTRTGKAAQVTIQSSGTFSSKFQVDNNNRLLLQQVSLPELPGEYSMKVTGEGCVYLQTSLKYNILPEKEEFPFALGVQTLPQTCDEPKAHTSFQISLSVSYTGSRSASNMAIVDVKMVSGFIPLKPTVKMLERSNHVSRTEVSSNHVLIYLDKVSNQTLSLFFTVLQDVPVRDLKPAIVKVYDYYETDEFAIAEYNAPCSKDLGNADYKDDDDKGASHHHHHH
